Experimental data as given in publication PMC8229081, “A Novel Assay for Phosphoserine Phosphatase Exploiting Serine Acetyltransferase as the Coupling Enzyme” (Life, 2021).

T1: human PSP (phosphoserine phosphatase) (Homo sapiens, UniProt P78330)
T1 construct: gene PSPH
T1 sequence (P78330 1-225): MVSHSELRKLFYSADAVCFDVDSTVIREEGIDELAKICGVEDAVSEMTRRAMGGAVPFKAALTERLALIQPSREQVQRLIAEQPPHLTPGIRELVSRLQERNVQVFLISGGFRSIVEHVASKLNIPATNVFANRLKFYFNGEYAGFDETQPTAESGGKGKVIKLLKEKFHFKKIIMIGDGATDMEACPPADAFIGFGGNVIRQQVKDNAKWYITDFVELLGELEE

B1: human PSP (phosphoserine phosphatase) (Homo sapiens) (protein)
chain: T1 sequence (P78330 1-225)
notes: dimer

Experiments:
[1] = molecular target: T1, human PSP (phosphoserine phosphatase); settings: 40 µM L-OPS, 15.7 nM PSP, 3 mM MgCl2, pH 7, 37 °C; product inhibition
purified protein = substrate: N[C@@H](COP(=O)(O)O)C(=O)O; assay: purified protein; assay type: biochemical, Homo sapiens; settings: 50 mM HEPES, 100 mM KCl, 3 mM MgCl2, pH 7, 37 °C, 170 µM acetyl-CoA, 0.5 mM DTNB, 430 mU HiSAT removing product L-serine

Row | Molecule | % inhibition at 50 mM [1] [%] | Km (purified protein) [µM] | kcat (purified protein) [s⁻¹] | kcat/Km (purified protein) [M⁻¹ s⁻¹]
1 | O=P(O)(O)O [phosphate] | 50 |  |  | 
2 | B1 |  | 40.3 ± 2.8 | 44.8 ± 0.9 | 1.11e+06 ± 100000
